# From patent publication US20060057696A1, “Sugar chain synthases” (priority 2002, published 2006)
# B1: Ovomucoid: glycoprotein acceptor substrate which contains only N-glycans (protein, UniProt P01005 25-210, looked up)
# Ovomucoid: AEVDCSRFPNATDKEGKDVLVCNKDLRPICGTDGVTYTNDCLLCAYSIEFGTNISKEHDGECKETVPMNCSSYANTTSEDGKVMVLCNRAFNPVCGTDGVTYDNECLLCAHKVEQGASVDKRHDGGCRKELAAVSVDCSEYPKPDCTAEDRPLCGSDNKTYGNKCNFCNAVVESNGTLTLSHFGKC
# B2: Asialoovomucoid: desialylated ovomucoid prepared at 80° C. for 1 hour in 0.02 N HCl (protein, UniProt P01005 25-210, looked up)
# Ovomucoid: B1 Ovomucoid
# modifications: desialylated
# notes: desialylated ovomucoid prepared at 80° C. for 1 hour in 0.02 N HCl
# Legend:
# [1] = biological target: T1, PA-mST8Sia VI (mouse ST8Sia VI) (Mus musculus, UniProt Q8K4T1); assay: Sialyltransferase activity of PA-mST8Sia VI toward acceptor substrates; format: biochemical; details: for Relative rate (%) Mouse ST8SiaVI: incorporation with Fetuin taken as 100, substrate 0.5 mg/ml glycolipids, 1 mg/ml glycoproteins, monosaccharides and oligosaccharides
# T1 construct: amino acids 26-398 in the case of mouse ST8Sia VI; signal peptide of mouse immunoglobulin IgM (N); made in house; host or cells: COS-7 cells, transient expression of pcDSA-mST8Sia VI; protein recovered from medium on IgG-Sepharose
# T1 sequence (Q8K4T1 26-398): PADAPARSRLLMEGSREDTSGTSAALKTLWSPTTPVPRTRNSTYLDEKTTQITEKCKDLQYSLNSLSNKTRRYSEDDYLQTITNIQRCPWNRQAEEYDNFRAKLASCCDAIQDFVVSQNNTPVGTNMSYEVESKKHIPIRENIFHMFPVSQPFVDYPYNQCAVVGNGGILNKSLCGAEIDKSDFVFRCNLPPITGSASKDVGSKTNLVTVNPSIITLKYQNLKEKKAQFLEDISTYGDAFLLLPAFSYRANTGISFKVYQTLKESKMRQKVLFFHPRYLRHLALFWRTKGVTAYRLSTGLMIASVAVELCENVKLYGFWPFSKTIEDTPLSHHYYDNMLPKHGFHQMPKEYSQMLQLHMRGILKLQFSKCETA
# Procedure: (§1) Using each expression vector and lipofectamine (Invitrogen), transient expression was carried out in COS-7 cells (Kojima, N. et al. (1995) FEBS Lett. 360, 1-4). The proteins of the present invention secreted from the cells into which each expression vector had been introduced were named as PA-mST8Sia VI (mouse) and PA-hST8Sia VI (human). PA-mST8Sia VI and PA-hST8Sia VI were adsorbed to IgG-Sepharose (Amersham Pharmacia Biotech), and were then recovered from medium. Sialyltransferase activity was measured as follows according to the method of Lee et al. (Lee, Y.-C. et al. (1999) J. Biol. Chem. 274, 11958-11967). A reaction solution (10 μl) containing 50 mM MES buffer (pH 6.0), 1 mM MgCl2, 1 mM CaCl2, 0.5% Triton CF-54, 100 μM CMP-[^14C]-NeuAc, a glycoconjugate (which was added at 0.5 mg/ml in the case of glycolipids, and at 1 mg/ml in the case of glycoproteins or oligosaccharides), and a PA-mST8Sia VI or PA-hST8Sia VI suspension, was incubated at 37° C. for 3 to 20 hours. Thereafter, in the case of glycolipids, the reaction product was purified with a C-18 column (Sep-Pak Vac 100 mg; Waters) and the purified product was used as a sample, and in the case of oligosaccharides or glycoproteins, the reaction product was directly used as a sample. Thus, the obtained samples were subjected to analysis. In the case of oligosaccharides or glycolipids, the sample was spotted on a silica gel 60 HPTLC plate (Merck), and was then developed with a developing solvent consisting of ethanol:pyridine:n-butanol:water:acetic acid=100:10:10:30:3 (for oligosaccharides), a developing solvent consisting of 1-propanol:ammonia water:water=6:1:2.5 (for oligosaccharides), or a developing solvent consisting of chloroform:methanol: 0.02% CaCl2=55:45:10 (for glycolipids). In the case of glycoproteins, analysis was carried out by SDS-polyacrylamide gel electrophoresis. The obtained radioactivities were visualized with a BAS2000 radio image analyzer (Fuji Film) and then quantified.
# [2] = biological target: T2, PA-hST8Sia VI (human ST8Sia VI) (Homo sapiens, UniProt P61647, L267F); assay: Sialyltransferase activity of PA-hST8Sia VI toward acceptor substrates; format: biochemical; details: incorporation with Fetuin taken as 100, substrate 0.5 mg/ml glycolipids, 1 mg/ml glycoproteins, monosaccharides and oligosaccharides
# T2 construct: amino acids 68-398 in the case of human ST8Sia VI; signal peptide of mouse immunoglobulin IgM (N); made in house; host or cells: COS-7 cells, transient expression of pcDSA-hST8Sia VI; protein recovered from medium on IgG-Sepharose
# T2 sequence (P61647 68-398 L267F): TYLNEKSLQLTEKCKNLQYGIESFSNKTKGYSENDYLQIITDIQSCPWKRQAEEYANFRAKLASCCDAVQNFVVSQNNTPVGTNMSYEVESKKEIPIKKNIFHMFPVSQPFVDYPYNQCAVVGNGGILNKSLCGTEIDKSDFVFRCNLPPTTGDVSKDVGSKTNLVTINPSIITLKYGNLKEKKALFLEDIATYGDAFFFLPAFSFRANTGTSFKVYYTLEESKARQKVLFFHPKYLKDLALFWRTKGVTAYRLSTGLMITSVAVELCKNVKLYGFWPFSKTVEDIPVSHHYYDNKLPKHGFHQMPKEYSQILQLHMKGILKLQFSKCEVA
# Procedure: as §1
molecule,measurement,setting,value
"Galβ1,4Glcβ1-Cer [Lactosylceramide]",Relative rate (%) Mouse ST8SiaVI,[1],0%
Asialo- α1-Acid glycoprotein: desialylated α1-acid glycoprotein prepared at 80° C. for 1 hour in 0.02 N HCl,Relative rate (%) Human ST8Sia VI,[2],0%
same,Relative rate (%) Mouse ST8SiaVI,[1],0%
"Galβ1,3GalNAcβ1,4(NeuAcα2,3)Galβ1,4Glcβ1-Cer [GM1a]",Relative rate (%) Mouse ST8SiaVI,[1],0%
Asialofetuin: asialo glycoprotein acceptor substrate purchased from Sigma,Relative rate (%) Human ST8Sia VI,[2],0%
same,Relative rate (%) Mouse ST8SiaVI,[1],0%
α1-Acid glycoprotein: glycoprotein acceptor substrate purchased from Sigma,Relative rate (%) Human ST8Sia VI,[2],0%
same,Relative rate (%) Mouse ST8SiaVI,[1],0%
"Fetuin: glycoprotein acceptor substrate containing both O-glycans and N-glycans, purchased from Sigma",Relative rate (%) Human ST8Sia VI,[2],100%
same,activity of PA-mST8Sia VI on the substrate (in words),[1],showed activity
same,Relative rate (%) Mouse ST8SiaVI,[1],100%
"NeuAcα2,3Galβ1,4Glcβ1-Cer [GM3]",Relative rate (%) Human ST8Sia VI,[2],1.6%
same,Km,[1],500 µM
same,Vmax value,[1],0.67 pmol/h/ml enzyme solution
same,activity of PA-mST8Sia VI on the substrate (in words),[1],showed activity
same,Relative rate (%) Mouse ST8SiaVI,[1],13.0%
B1,Relative rate (%) Human ST8Sia VI,[2],12.3%
same,activity of PA-mST8Sia VI on the substrate (in words),[1],showed activity
same,Relative rate (%) Mouse ST8SiaVI,[1],6.2%
B2,Relative rate (%) Human ST8Sia VI,[2],0%
same,Relative rate (%) Mouse ST8SiaVI,[1],0%
